# Results taken from PMC12828377, “HDAC6-mediated PFKL deacetylation enhances aerobic glycolysis and promotes VSMC proliferation” (The Journal of Biological Chemistry, 2025).
# What was measured:
# Test in all cases: cross-linking; VSMC lysate (700 ug protein in NP40 buffer) fixed with 0.1% glutaraldehyde on ice for 10 min, then Western blot; cells with or without PDGF-BB (10 ng/ml, different durations), TSA or NAM, or transduced with Ad-PFKL WT/K563Q/K563R
# [1] = target: HA-PFKL K563R (UniProt P17858)
# [2] = target: HA-PFKL WT (UniProt P17858)
# [3] = target: the molecule itself
molecule,measurement,setting,value
HA-PFKL K563R (from UniProt P17858 1-780) (enzyme),stoichiometry N,[1],4
HA-PFKL WT (from UniProt P17858 1-780) (enzyme),stoichiometry N,[2],4
"phosphofructokinase, liver type (PFKL) (enzyme, rat (endogenous in primary rat VSMCs), UniProt P30835 1-780, looked up, phosphofructokinase, liver type (PFKL), endogenous in primary VSMCs from the thoracic aorta of Sprague-Dawley rats; Acetylation level of the endogenous protein changes with PDGF-BB, TSA or NAM; sites on the endogenous protein were not mapped directly; also called endogenous PFKL; PFK1 liver isoform; source: endogenous, primary rat VSMC lysate (NP-40 buffer) or fixed VSMCs) MATVDLEKLRMSGAGKAIGVLTSGGDAQGMNAAVRAVTRMGIYVGAKVFLIYEGYEGLVEGGENIKPANWLSVSNIIQLGGTIIGSARCKAFTTREGRLAAAYNLLQHGITNLCVIGGDGSLTGANIFRNEWGSLLEELVKEGKISESTAQNYAHLSIAGLVGSIDNDFCGTDMTIGTDSALHRIMEVIDAITTTAQSHQRTFVLEVMGRHCGYLALVSALASGADWLFIPEAPPEDGWENFMCERLGETRSRGSRLNIIIIAEGAIDRHGKPISSSYVKDLVVQRLGFDTRVTVLGHVQRGGTPSAFDRVLSSKMGMEAVMALLEATPDTPACVVSLSGNQSVRLPLMECVQVTKDVQKAMDEKRFDEAIQLRGRSFENNWKIYKLLAHQKVSKEKSNFSLAILNVGAPAAGMNAAVRSAVRTGISEGHTVYVVHDGFEGLAKGQVQEVGWHDVAGWLGRGGSMLGTKRTLPKPHLEAIVENLRTYNIHALLVIGGFEAYEGVLQLVEARGRYEELCIVMCVIPATISNNVPGTDFSLGSDTAVNAAMESCDRIKQSASGTKRRVFIVETMGGYCGYLATVTGIAVGADAAYVFEDPFNIHDLKANVEHMTEKMKTDIQRGLVLRNEKCHEHYTTEFLYNLYSSEGRGVFDCRTNVLGHLQQGGAPTPFDRNYGTKLGVKAMLWMSEKLRDVYRKGRVFANAPDSACVIGLRKKVVAFSSVTELKKETDFEHRMPREQWWLNLRLMLKMLAHYRISMADYVSGELEHVTRRTLSIDKGF",stoichiometry N,[3],4
